Assay results as given in paper PMC3904261 (British Journal of Pharmacology, 2013).
Where “and” joins values, the source holds several entries; their conditions need not be identical. Equal values may be shown once. Bridge positions count the residues as written; N and C are the ends. Ends that are not written are not given here.

Legend:
[1] = molecular target: T1, CGRP receptor (Homo sapiens, UniProt O60894+Q16602); assay: cAMP production in SK-N-MC cells; assay type: cell-based; set-up: relative expression levels of the receptors (endogenous vs. overexpressed); endogenous in cells; host or cells: SK-N-MC cells (ECACC clone; ATCC clone for [Cys5]-CGRP); settings: for cAMP (SK-N-MC) Emax (% CGRP) CGRP analogue: radioreceptor assay, approx. 10 min, means ± SEM, n = 3–6
T1 sequence (Q16602 23-461): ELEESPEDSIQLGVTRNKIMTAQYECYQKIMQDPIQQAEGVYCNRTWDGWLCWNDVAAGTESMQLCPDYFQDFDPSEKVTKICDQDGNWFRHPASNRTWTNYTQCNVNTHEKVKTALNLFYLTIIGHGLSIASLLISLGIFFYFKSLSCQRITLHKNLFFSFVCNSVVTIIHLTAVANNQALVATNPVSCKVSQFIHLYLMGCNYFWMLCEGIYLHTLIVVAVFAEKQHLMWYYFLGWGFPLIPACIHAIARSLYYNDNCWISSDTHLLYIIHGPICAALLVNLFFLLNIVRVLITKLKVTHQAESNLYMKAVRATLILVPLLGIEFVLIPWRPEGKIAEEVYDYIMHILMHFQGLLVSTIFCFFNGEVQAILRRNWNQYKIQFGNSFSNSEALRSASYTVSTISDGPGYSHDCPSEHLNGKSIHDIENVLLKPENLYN
T1 sequence (O60894 27-148): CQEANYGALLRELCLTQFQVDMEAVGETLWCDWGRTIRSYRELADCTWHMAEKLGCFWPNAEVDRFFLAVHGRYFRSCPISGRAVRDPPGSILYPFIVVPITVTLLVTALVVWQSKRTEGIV
Protocol: (§1) Production of cAMP in SK-N-MC cells for all analogues except [[…]]-hαCGRP was by a radioreceptor assay, as described previously (Poyner et al., [1998]). […] For [[…]]-hαCGRP, a different clone of SK-N-MC cells was used and cAMP production was measured via AlphaScreen (Perkin Elmer, Wellesley, MA, USA), as described previously ([…] et al., [2010]). This assay was also used to investigate the action of all derivatives at the AMY1(a) receptor and other experiments using Cos 7 cells. […] GraphPad Prism 5.00 or 6.00 (GraphPad Software Inc., San Diego, CA, USA) was used for data fitting. Concentration-response curves were fitted to a sigmoidal function with Hill slope constrained to unity to obtain pEC50 and maximum responses (Emax) values. Displacement curves were analysed to obtain pIC50 values. Schild plots were fitted by linear regression to obtain slope and intercepts. pEC50 and pIC50 values were compared with that of human αCGRP using Dunnett's test with either a normal or repeated measures one-way ANOVA, as appropriate.

[2] = molecular target: T2, AMY1(a) receptor (Homo sapiens, UniProt O60894+P30988); assay: cAMP production in Cos 7 cells via the AMY1(a) receptor; assay type: cell-based; settings: AlphaScreen, means ± SEM
T2 construct: HA; expressed in transfected cells; host or cells: Cos 7
T2 sequence (P30988 25-474): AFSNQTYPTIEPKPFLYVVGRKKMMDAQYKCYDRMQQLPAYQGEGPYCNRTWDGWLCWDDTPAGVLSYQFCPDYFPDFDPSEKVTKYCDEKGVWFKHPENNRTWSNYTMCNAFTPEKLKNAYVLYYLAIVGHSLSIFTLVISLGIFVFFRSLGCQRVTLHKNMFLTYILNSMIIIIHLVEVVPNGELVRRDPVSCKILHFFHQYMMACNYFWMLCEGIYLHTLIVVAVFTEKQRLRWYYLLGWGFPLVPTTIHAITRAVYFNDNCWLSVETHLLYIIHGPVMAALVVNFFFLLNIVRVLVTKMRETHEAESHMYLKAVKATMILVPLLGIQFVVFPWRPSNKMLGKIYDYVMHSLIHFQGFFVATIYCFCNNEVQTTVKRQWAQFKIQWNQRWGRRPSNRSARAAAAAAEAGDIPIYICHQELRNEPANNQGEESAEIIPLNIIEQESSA
T2 sequence (O60894 27-148): as the sequence (O60894 27-148) above
Protocol: as §1, with “SK-N-MC cells were grown in DMEM/F12 medium supplemented with 10% fetal calf serum as described previously (Poyner et al., [1998]). […] Production” for “Production”

[3] = molecular target: T1, CGRP receptor; assay: β-arrestin 2 translocation in CHO-K1 cells (PathHunter eXpress); assay type: cell-based; set-up: host or cells: CHO-K1 (PathHunter eXpress β-arrestin kit); settings: for β-Arrestin (CHO-K1) Emax (% CGRP) CGRP analogue: 2 h stimulation, means ± SEM, n = 3; for reduction of Emax, β-arrestin 2 translocation: CHO-K1 cells, compared with CGRP
Protocol: GraphPad Prism 5.00 or 6.00 (GraphPad Software Inc., San Diego, CA, USA) was used for data fitting. Concentration–response curves were fitted to a sigmoidal function with Hill slope constrained to unity to obtain pEC50 and maximum responses (Emax) values. Displacement curves were analysed to obtain pIC50 values. Schild plots were fitted by linear regression to obtain slope and intercepts. pEC50 and pIC50 values were compared with that of human αCGRP using Dunnett's test with either a normal or repeated measures one-way ANOVA, as appropriate.

[4] = molecular target: T3, CGRP receptor (calcitonin receptor-like receptor in complex with receptor activity-modifying protein 1) (human (endogenous in SK-N-MC), UniProt Q16602 23-461; O60894 27-148); assay: cell-based or functional assay
T3 sequence (Q16602 23-461, chain 1 of 2): as the sequence (Q16602 23-461) above
T3 sequence (O60894 27-148, chain 2 of 2): as the sequence (O60894 27-148) above

[5] = molecular target: T3, CGRP receptor (calcitonin receptor-like …); assay: radioligand binding; displacement of ^125I-CGRP from SK-N-MC cell membranes by unlabelled peptides, microcentrifugation-based binding assay; [Cys^5]-CGRP and its control on another batch of SK-N-MC cells; settings: one partner purified
[6] = molecular target: AMY_(1(a)) receptor (human HA-tagged CT (a) receptor with human myc-tagged RAMP1) (human) (UniProt O60894)
AMY_(1(a)) receptor (human HA-tagged CT (a) receptor with human myc-tagged RAMP1) (human), sequence (O60894 whole entry, looked up): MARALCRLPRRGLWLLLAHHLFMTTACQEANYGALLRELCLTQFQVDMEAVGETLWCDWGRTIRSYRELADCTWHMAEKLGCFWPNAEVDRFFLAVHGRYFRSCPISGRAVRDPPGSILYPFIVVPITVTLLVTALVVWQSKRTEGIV

## CC(C)C[C@H](NC(=O)CNC(=O)[C@H](C)NC(=O)[C@H](CC(C)C)NC(=O)[C@H](CCCNC(=N)N)NC(=O)[C@H](Cc1c[nH]cn1)NC(=O)[C@@H](NC(=O)[C@@H](NC(=O)[C@@H]1CSSC[C@H](NC(=O)[C@H](C)N)C(=O)N[C@@H](CC(=O)O)C(=O)N[C@@H](C)C(=O)N[C@@H](C)C(=O)N[C@@H]([C@@H](C)O)C(=O)N1)C(C)C)[C@@H](C)O)C(=O)N[C@@H](CC(C)C)C(=O)N[C@@H](CO)C(=O)N[C@@H](CCCNC(=N)N)C(=O)N[C@@H](CO)C(=O)NCC(=O)NCC(=O)N[C@H](C(=O)N[C@H](C(=O)N[C@@H](CCCCN)C(=O)N[C@@H](CC(N)=O)C(=O)N[C@@H](CC(N)=O)C(=O)N[C@@H](Cc1ccccc1)C(=O)N[C@H](C(=O)N1CCC[C@H]1C(=O)N[C@H](C(=O)N[C@@H](CC(N)=O)C(=O)N[C@H](C(=O)NCC(=O)N[C@@H](CO)C(=O)N[C@@H](CCCCN)C(=O)N[C@@H](C)C(=O)N[C@@H](Cc1ccccc1)C(N)=O)C(C)C)[C@@H](C)O)C(C)C)C(C)C)C(C)C [[Ala^4]]
[1]; AlphaScreen, second SK-N-MC clone, n = 3–4, read-out: pEC50, cAMP, control experiments for cross-compatibility of the two SK-N-MC cell clones (converted)
  EC50: 26.3 nM and 40.7 nM
[1]
  cAMP (SK-N-MC) Emax (% CGRP) CGRP analogue: 100 ± 11 % CGRP
[1]; listed as [Ala^6]
  cAMP (SK-N-MC) Emax (% CGRP) CGRP analogue: 72 ± 12 % CGRP
[1]; listed as [Ala^8]
  cAMP (SK-N-MC) Emax (% CGRP) CGRP analogue: 104 ± 8 % CGRP
[1]; listed as [Ala^9]
  cAMP (SK-N-MC) Emax (% CGRP) CGRP analogue: 103 ± 13 % CGRP
[2]; n = 3–6
  AMY1(a) receptor-stimulated cAMP Emax (% CGRP) CGRP analogue: 161 ± 45 % CGRP
[2]; n = 3–6, listed as [Ala^6]
  AMY1(a) receptor-stimulated cAMP Emax (% CGRP) CGRP analogue: 42 ± 11 % CGRP
[2]; n = 3–6, listed as [Ala^8]
  AMY1(a) receptor-stimulated cAMP Emax (% CGRP) CGRP analogue: 143 ± 11 % CGRP
[2]; n = 3–6, listed as [Ala^9]
  AMY1(a) receptor-stimulated cAMP Emax (% CGRP) CGRP analogue: 89 ± 9 % CGRP
[3]
  β-Arrestin (CHO-K1) Emax (% CGRP) CGRP analogue: 73 ± 3 % CGRP
[3]; listed as [Ala^6]
  β-Arrestin (CHO-K1) Emax (% CGRP) CGRP analogue: 43 ± 2.0 % CGRP
[3]; listed as [Ala^8]
  β-Arrestin (CHO-K1) Emax (% CGRP) CGRP analogue: 81 ± 3 % CGRP
[3]; listed as [Ala^9]
  β-Arrestin (CHO-K1) Emax (% CGRP) CGRP analogue: 64 ± 3 % CGRP
[3]; listed as [Ala^6]-CGRP
  reduction of Emax, β-arrestin 2 translocation: ~60%
[3]; listed as [Ala^8]-CGRP
  reduction of Emax, β-arrestin 2 translocation: 20%

## CCDTATCVTHRLAGLLSRSGGVVKNNFVPTNVGSKAF-NH2 (disulfide 2-7; also: Cys1 Acm protected, removal not given here) [[Cys^1]-CGRP]
[4]
  Emax (% CGRP), cAMP production in SK-N-MC cells: 71 % CGRP
  Emax (% CGRP), β-arrestin 2 translocation in CHO-K1 cells expressing the human CGRP receptor: 60 % CGRP
  pEC50, cAMP production in SK-N-MC cells: 7.7
  pEC50, β-arrestin 2 translocation in CHO-K1 cells expressing the human CGRP receptor: 8.58
[5]
  pKi: 9.55

B1: [Ala^8]-CGRP (peptide)
chain: ACDTATCATHRLAGLLSRSGGVVKNNFVPTNVGSKAF-NH2
modifications: disulfide 2-7; N-terminus assumed
SMILES: CC(C)C[C@H](NC(=O)CNC(=O)[C@H](C)NC(=O)[C@H](CC(C)C)NC(=O)[C@H](CCCNC(=N)N)NC(=O)[C@H](Cc1c[nH]cn1)NC(=O)[C@@H](NC(=O)[C@H](C)NC(=O)[C@@H]1CSSC[C@H](NC(=O)[C@H](C)N)C(=O)N[C@@H](CC(=O)O)C(=O)N[C@@H]([C@@H](C)O)C(=O)N[C@@H](C)C(=O)N[C@@H]([C@@H](C)O)C(=O)N1)[C@@H](C)O)C(=O)N[C@@H](CC(C)C)C(=O)N[C@@H](CO)C(=O)N[C@@H](CCCNC(=N)N)C(=O)N[C@@H](CO)C(=O)NCC(=O)NCC(=O)N[C@H](C(=O)N[C@H](C(=O)N[C@@H](CCCCN)C(=O)N[C@@H](CC(N)=O)C(=O)N[C@@H](CC(N)=O)C(=O)N[C@@H](Cc1ccccc1)C(=O)N[C@H](C(=O)N1CCC[C@H]1C(=O)N[C@H](C(=O)N[C@@H](CC(N)=O)C(=O)N[C@H](C(=O)NCC(=O)N[C@@H](CO)C(=O)N[C@@H](CCCCN)C(=O)N[C@@H](C)C(=O)N[C@@H](Cc1ccccc1)C(N)=O)C(C)C)[C@@H](C)O)C(C)C)C(C)C)C(C)C
[6]
  Emax (% CGRP), cAMP production in Cos 7 cells with the AMY (1(a)) receptor: 143 % CGRP
  pEC50, cAMP production in Cos 7 cells with the AMY (1(a)) receptor: 8.97
[5]
  pKi: 9.42

## ACDTADCVTHRLAGLLSRSGGVVKNNFVPTNVGSKAF-NH2 (disulfide 2-7) [[Asp^6]-CGRP]
[5]
  pKi: 7.5

## ACDTACCVTHRLAGLLSRSGGVVKNNFVPTNVGSKAF-NH2 (disulfide 2-7; also: Cys6 Acm protected, removal not given here) [[Cys^6]-CGRP]
[5]
  pKi: 9.33

## ACDTAKCVTHRLAGLLSRSGGVVKNNFVPTNVGSKAF-NH2 (disulfide 2-7) [[Lys^6]-CGRP]
[5]
  pKi: 7.76

B2: [Ala^9]-CGRP (peptide)
chain: ACDTATCVAHRLAGLLSRSGGVVKNNFVPTNVGSKAF-NH2
modifications: disulfide 2-7; N-terminus assumed
SMILES: CC(C)C[C@H](NC(=O)CNC(=O)[C@H](C)NC(=O)[C@H](CC(C)C)NC(=O)[C@H](CCCNC(=N)N)NC(=O)[C@H](Cc1c[nH]cn1)NC(=O)[C@H](C)NC(=O)[C@@H](NC(=O)[C@@H]1CSSC[C@H](NC(=O)[C@H](C)N)C(=O)N[C@@H](CC(=O)O)C(=O)N[C@@H]([C@@H](C)O)C(=O)N[C@@H](C)C(=O)N[C@@H]([C@@H](C)O)C(=O)N1)C(C)C)C(=O)N[C@@H](CC(C)C)C(=O)N[C@@H](CO)C(=O)N[C@@H](CCCNC(=N)N)C(=O)N[C@@H](CO)C(=O)NCC(=O)NCC(=O)N[C@H](C(=O)N[C@H](C(=O)N[C@@H](CCCCN)C(=O)N[C@@H](CC(N)=O)C(=O)N[C@@H](CC(N)=O)C(=O)N[C@@H](Cc1ccccc1)C(=O)N[C@H](C(=O)N1CCC[C@H]1C(=O)N[C@H](C(=O)N[C@@H](CC(N)=O)C(=O)N[C@H](C(=O)NCC(=O)N[C@@H](CO)C(=O)N[C@@H](CCCCN)C(=O)N[C@@H](C)C(=O)N[C@@H](Cc1ccccc1)C(N)=O)C(C)C)[C@@H](C)O)C(C)C)C(C)C)C(C)C
[4]
  Emax (% CGRP), cAMP production in SK-N-MC cells: 103 % CGRP
  Emax (% CGRP), β-arrestin 2 translocation in CHO-K1 cells expressing the human CGRP receptor: 64 % CGRP
  pEC50, cAMP production in SK-N-MC cells: 7.3
  pEC50, β-arrestin 2 translocation in CHO-K1 cells expressing the human CGRP receptor: 8.23
[6]
  Emax (% CGRP), cAMP production in Cos 7 cells with the AMY (1(a)) receptor: 89 % CGRP
  pEC50, cAMP production in Cos 7 cells with the AMY (1(a)) receptor: 8.21
